# Assay results from US20200040057A1.
# Tests used:
# HLA-B*07 (human) [1] = assay: UV peptide exchange ELISA; +++ = yield >50
# HLA-B*07 (human) [2] = assay: UV peptide exchange ELISA; ++++ = yield >75%
peptide exchange yield (HLA-B*07 (human) [1]) [%],peptide exchange yield (HLA-B*07 (human) [2]) [%],Binder
–,> 75,FPNEVSVVL
–,> 75,LPRIPFSTF

# The next lines start with the binder.
Binder,peptide exchange yield (HLA-B*07 (human) [1]) [%],peptide exchange yield (HLA-B*07 (human) [2]) [%]
LPRGLSPARQL,50 to 75,–
VPRPIFSQLYL,–,> 75
VPRPTSTVGL,50 to 75,–
